Measurements from patent US20230365709A1 (published 2023).
Blank lines part the entries; values can stand above or below the binder they belong to.

Legend:
[1] = molecular target: T1, recombinant human CD64 expressed on the surface of CHO cells (human, UniProt P12314 16-374); assay: flow cytometry, receptor-expressing CHO cells
T1 construct: whole, on cells; also called huCD64
Description: (§1) The CHO cells were incubated with serial dilutions of the indicated trispecific constructs and control constructs at 37° C., and cell surface bound antibodies were detected by FITC-conjugated goat anti-human IgG Fc and flow cytometric analysis. Measured median fluorescence intensity values were used to calculate apparent affinities (KD) by non-linear regression.

[2] = molecular target: T2, recombinant human CD32A expressed on the surface of CHO cells (human, UniProt P12318 34-317); assay: flow cytometry, CHO-huCD32A cells, apparent KD; SD n.a.
T2 construct: whole, on cells; also called huCD32A
T2 sequence (looked up): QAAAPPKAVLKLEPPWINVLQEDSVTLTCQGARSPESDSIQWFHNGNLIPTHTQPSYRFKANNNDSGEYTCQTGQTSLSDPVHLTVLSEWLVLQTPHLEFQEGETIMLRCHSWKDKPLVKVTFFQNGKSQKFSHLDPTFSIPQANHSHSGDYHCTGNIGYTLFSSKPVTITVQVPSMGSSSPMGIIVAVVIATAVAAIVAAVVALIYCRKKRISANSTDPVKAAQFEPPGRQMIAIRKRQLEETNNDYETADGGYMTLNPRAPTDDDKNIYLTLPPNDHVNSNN
Description: as §1

[3] = molecular target: T1, recombinant human CD64 expressed on the …; assay: flow cytometry, CHO-huCD64 cells, apparent KD; SD 13.7
Description: as §1

[4] = molecular target: T2, recombinant human CD32A expressed on …; assay: flow cytometry, CHO-huCD32A cells, apparent KD; SD 719.6
Description: as §1

[5] = molecular target: T2, recombinant human CD32A expressed on …; assay: flow cytometry, CHO-huCD32A cells, apparent KD; SD 118.9
Description: as §1

[6] = molecular target: T1, recombinant human CD64 expressed on the …; assay: flow cytometry, CHO-huCD64 cells, apparent KD; SD 8.7
Description: as §1

[7] = molecular target: T3, recombinant human NKp46 expressed on the surface of CHO cells (human, UniProt O76036 22-304); assay: flow cytometry, CHO-huNKp46 cells, apparent KD; SD 6.2
T3 construct: whole, on cells; also called huNKp46; CD355
Description: as §1

[8] = molecular target: T1, recombinant human CD64 expressed on the …; assay: flow cytometry, CHO-huCD64 cells, apparent KD; SD 7.0
Description: as §1

T1 sequence (P12314 16-374): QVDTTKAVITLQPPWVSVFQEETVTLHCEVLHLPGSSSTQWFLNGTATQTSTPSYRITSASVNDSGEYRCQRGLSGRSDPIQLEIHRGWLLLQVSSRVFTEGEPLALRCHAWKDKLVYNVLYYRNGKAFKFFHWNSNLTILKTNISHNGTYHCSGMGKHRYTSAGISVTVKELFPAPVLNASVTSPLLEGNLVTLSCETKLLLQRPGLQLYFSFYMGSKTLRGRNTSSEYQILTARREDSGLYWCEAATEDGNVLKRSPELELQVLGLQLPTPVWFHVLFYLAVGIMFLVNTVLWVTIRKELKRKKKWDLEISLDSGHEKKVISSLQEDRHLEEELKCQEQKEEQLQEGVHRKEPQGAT
T3 sequence (O76036 22-304): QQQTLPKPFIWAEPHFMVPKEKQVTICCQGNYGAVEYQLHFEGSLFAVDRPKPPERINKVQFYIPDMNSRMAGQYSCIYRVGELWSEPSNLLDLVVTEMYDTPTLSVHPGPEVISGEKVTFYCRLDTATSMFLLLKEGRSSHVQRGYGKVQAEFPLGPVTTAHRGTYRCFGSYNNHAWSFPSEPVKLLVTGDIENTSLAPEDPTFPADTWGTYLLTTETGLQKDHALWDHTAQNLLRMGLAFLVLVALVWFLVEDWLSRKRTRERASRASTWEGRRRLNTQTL

B2: IG-scDb-1 (other)
heavy: EVQLVESGGGLVKPGGSLKLSCAASGYTFTSYVMHWVRQAPGKGLEWIGYINPYNDGTKYNEKFQGRVTISSDKSISTAYMELSSLRSEDTAMYYCARGTYYYGTRVFDYWGQGTLVTVSSASTKGPSVFPLAPSSKSTSGGTAALGCLVKDYFPEPVTVSWNSGALTSGVHTFPAVLQSSGLYSLSSVVTVPSSSLGTQTYICNVNHKPSNTKVDKKVEPKSCDKTHTCPPCPAPEFEGGPSVFLFPPKPKDTLMISRTPEVTCVVVAVSHEDPEVKFNWYVDGVEVHNAKTKPREEQYGSTYRVVSVLTVLHQDWLNGKEYKCKVSNKALPAPIEKTISKAKGQPREPQVYTLPPSREEMTKNQVSLTCLVKGFYPSDIAVEWESNGQPENNYKTTPPVLDSDGSFFLYSKLTVDKSRWQQGNVFSCSVMHEALHNHYTQKSLSLSPGGGGGSGGGGSSYELTQPLSVSVALGQTARITCGGHNIGSKNVHWYQQKPGQAPVLVIYQDNKRPSGIPERFSGSNSGNTATLTISRAQAGDEADYYCQVWDNYNVLFGCGTKLTVLGGSGGSQVQLVESGGGLVKPGGSLRLSCAASGFTFSSYGMHWVRQAPGKGLEWVAFIRYDGSNKYYADSVKGRFTISRDNSKNTLYLQMNSLRAEDTAVYYCAKDRGLGDGTYFDYWGQGTTVTVSSGGSGGSGGSGGSGGSGGSQSALTQPASVSGSPGQSITISCSGSSSNIGNNAVNWYQQLPGKAPKLLIYYDDLLPSGVSDRFSGSKSGTSAFLAISGLQSEDEADYYCAAWDDSLNGPVFGGGTKLTVLGGSGGSQVQLVQSGAEVKKPGASVKVSCKASGYTFTSYYMHWVRQAPGQCLEWMGAIEPTYGSTSYAQKFQGRVTMTRDTSTSTVYMELSSLRSEDTAVYYCARGSAYYYDFADYWGQGTLVTVSS
light: DIVMTQSPATLSLSPGERATLSCRSSKSLQNVNGNTYLYWFQQKPGQSPQLLIYRMSNLNSGVPDRFSGSGSGTEFTLTISSLEPEDFAVYYCMQHLEYPITFGAGTKLEIKRTVAAPSVFIFPPSDEQLKSGTASVVCLLNNFYPREAKVQWKVDNALQSGNSQESVTEQDSKDSTYSLSSTLTLSKADYEKHKVYACEVTHQGLSSPVTKSFNRGEC
notes: trispecific construct: target CD19, effector domains CD16A(P2C47var50) and NKG2D(KYK-2.0)
- Kd [2]: 4090 nM

B3: 2Fab-1scFv-AFc-3 (bispecific antibody, human IgG1, kappa)
heavy: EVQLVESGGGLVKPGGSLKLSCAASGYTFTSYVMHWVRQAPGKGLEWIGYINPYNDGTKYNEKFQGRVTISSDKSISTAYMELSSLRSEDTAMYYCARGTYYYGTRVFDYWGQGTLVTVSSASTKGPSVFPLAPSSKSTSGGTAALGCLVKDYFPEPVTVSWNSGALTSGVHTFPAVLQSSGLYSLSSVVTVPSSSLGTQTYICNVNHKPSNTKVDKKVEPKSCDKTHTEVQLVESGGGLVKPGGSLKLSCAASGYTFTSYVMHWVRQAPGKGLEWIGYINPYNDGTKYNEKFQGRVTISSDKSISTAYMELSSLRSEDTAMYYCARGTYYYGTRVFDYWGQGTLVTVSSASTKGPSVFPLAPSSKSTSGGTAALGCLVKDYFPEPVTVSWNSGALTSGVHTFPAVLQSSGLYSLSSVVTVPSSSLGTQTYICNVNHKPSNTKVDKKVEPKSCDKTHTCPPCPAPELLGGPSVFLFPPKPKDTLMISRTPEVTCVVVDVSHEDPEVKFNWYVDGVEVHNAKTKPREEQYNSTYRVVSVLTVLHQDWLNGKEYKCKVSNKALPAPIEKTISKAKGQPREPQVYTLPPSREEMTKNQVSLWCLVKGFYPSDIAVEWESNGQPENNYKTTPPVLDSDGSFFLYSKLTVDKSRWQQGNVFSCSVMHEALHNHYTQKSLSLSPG
light: DIVMTQSPATLSLSPGERATLSCRSSKSLQNVNGNTYLYWFQQKPGQSPQLLIYRMSNLNSGVPDRFSGSGSGTEFTLTISSLEPEDFAVYYCMQHLEYPITFGAGTKLEIKRTVAAPSVFIFPPSDEQLKSGTASVVCLLNNFYPREAKVQWKVDNALQSGNSQESVTEQDSKDSTYSLSSTLTLSKADYEKHKVYACEVTHQGLSSPVTKSFNRGEC
chain: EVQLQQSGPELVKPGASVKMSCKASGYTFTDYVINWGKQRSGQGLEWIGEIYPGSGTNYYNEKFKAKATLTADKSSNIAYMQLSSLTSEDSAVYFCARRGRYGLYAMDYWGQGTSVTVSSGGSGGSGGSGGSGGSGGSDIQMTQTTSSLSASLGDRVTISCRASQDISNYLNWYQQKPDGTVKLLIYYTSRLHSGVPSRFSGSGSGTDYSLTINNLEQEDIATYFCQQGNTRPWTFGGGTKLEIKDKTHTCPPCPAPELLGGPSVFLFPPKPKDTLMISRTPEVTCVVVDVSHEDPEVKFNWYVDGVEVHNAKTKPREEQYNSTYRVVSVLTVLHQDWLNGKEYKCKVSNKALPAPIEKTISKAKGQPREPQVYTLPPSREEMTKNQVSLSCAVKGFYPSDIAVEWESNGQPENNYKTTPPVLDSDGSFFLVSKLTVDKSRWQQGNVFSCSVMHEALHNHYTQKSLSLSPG
notes: CD19, wt Fc, NKp46(NKp46-1)
- Kd [3]: 38.1 nM
- Kd [4]: 682 nM

B6: 1Fab-AFc-1Fab-1 (bispecific antibody, human IgG1, kappa)
chain 1: not shown
chain 2: EVQLVESGGGLVKPGGSLKLSCAASGYTFTSYVMHWVRQAPGKGLEWIGYINPYNDGTKYNEKFQGRVTISSDKSISTAYMELSSLRSEDTAMYYCARGTYYYGTRVFDYWGQGTLVTVSSASTKGPSVFPLAPSSKSTSGGTAALGCLVKDYFPEPVTVSWNSGALTSGVHTFPAVLQSSGLYSLSSVVTVPSSSLGTQTYICNVNHKPSNTKVDKKVEPKSCDKTHTCPPCPAPELLGGPSVFLFPPKPKDTLMISRTPEVTCVVVDVSHEDPEVKFNWYVDGVEVHNAKTKPREEQYNSTYRVVSVLTVLHQDWLNGKEYKCKVSNKALPAPIEKTISKAKGQPREPQVYTLPPSREEMTKNQVSLSCAVKGFYPSDIAVEWESNGQPENNYKTTPPVLDSDGSFFLVSKLTVDKSRWQQGNVFSCSVMHEALHNHYTQKSLSLSPGSTGSQVQLQQSGPELVKPGASVKMSCKASGYTFTDYVINWGKQRSGQGLEWIGEIYPGSGTNYYNEKFKAKATLTADKSSNIAYMQLSSLTSEDSAVYFCARRGRYGLYAMDYWGQGTSVTVSSRTVAAPSVFIFPPSDEQLKSGTASVVCLLNNFYPREAKVQWKVDNALQSGNSQESVTEQDSKDSTYSLSSTLTLSKADYEKHKVYACEVTHQGLSSPVTKSFNRGEC
chain 3: DIQMTQTTSSLSASLGDRVTISCRASQDISNYLNWYQQKPDGTVKLLIYYTSRLHSGVPSRFSGSGSGTDYSLTINNLEQEDIATYFCQQGNTRPWTFGGGTKLEIKASTKGPSVFPLAPSSKSTSGGTAALGCLVKDYFPEPVTVSWNSGALTSGVHTFPAVLQSSGLYSLSSVVTVPSSSLGTQTYICNVNHKPSNTKVDKKVEPKSCDKTH
notes: CD19, wt Fc, NKp46(NKp46-1); also called ComparatorA_1
- Kd [5]: 286 nM
- Kd [6]: 22.7 nM

B7: 1Fab-AFc-1Fab-2 (bispecific antibody, human IgG1, kappa)
chain 1: not shown
chain 2: EVQLVESGGGLVKPGGSLKLSCAASGYTFTSYVMHWVRQAPGKGLEWIGYINPYNDGTKYNEKFQGRVTISSDKSISTAYMELSSLRSEDTAMYYCARGTYYYGTRVFDYWGQGTLVTVSSASTKGPSVFPLAPSSKSTSGGTAALGCLVKDYFPEPVTVSWNSGALTSGVHTFPAVLQSSGLYSLSSVVTVPSSSLGTQTYICNVNHKPSNTKVDKKVEPKSCDKTHTCPPCPAPELLGGPSVFLFPPKPKDTLMISRTPEVTCVVVDVSHEDPEVKFNWYVDGVEVHNAKTKPREEQYNSTYRVVSVLTVLHQDWLNGKEYKCKVSNKALPAPIEKTISKAKGQPREPQVYTLPPSREEMTKNQVSLSCAVKGFYPSDIAVEWESNGQPENNYKTTPPVLDSDGSFFLVSKLTVDKSRWQQGNVFSCSVMHEALHNHYTQKSLSLSPGSTGSEVQLQQSGPELVKPGASVKISCKTSGYTFTEYTMHWVKQSHGKSLEWIGGISPNIGGTSYNQKFKGKATLTVDKSSSTAYMELRSLTSEDSAVYYCARRGGSFDYWGQGTTLTVSSRTVAAPSVFIFPPSDEQLKSGTASVVCLLNNFYPREAKVQWKVDNALQSGNSQESVTEQDSKDSTYSLSSTLTLSKADYEKHKVYACEVTHQGLSSPVTKSFNRGEC
chain 3: DIVMTQSPATLSVTPGDRVSLSCRASQSISDYLHWYQQKSHESPRLLIKYASQSISGIPSRFSGSGSGSDFTLSINSVEPEDVGVYYCQNGHSFPLTFGAGTKLELKASTKGPSVFPLAPSSKSTSGGTAALGCLVKDYFPEPVTVSWNSGALTSGVHTFPAVLQSSGLYSLSSVVTVPSSSLGTQTYICNVNHKPSNTKVDKKVEPKSCDKTH
notes: CD19, wt Fc, NKp46(NKp46-3); also called ComparatorA_2
- Kd [7]: 48 nM
- Kd [8]: 23.9 nM
- Kd [2]: 1150 nM

The next lines start with the values.

- binding result [1]: binds
B1: 2Fab-1scFv-AFc-1 (bispecific antibody, human IgG1, kappa)
heavy: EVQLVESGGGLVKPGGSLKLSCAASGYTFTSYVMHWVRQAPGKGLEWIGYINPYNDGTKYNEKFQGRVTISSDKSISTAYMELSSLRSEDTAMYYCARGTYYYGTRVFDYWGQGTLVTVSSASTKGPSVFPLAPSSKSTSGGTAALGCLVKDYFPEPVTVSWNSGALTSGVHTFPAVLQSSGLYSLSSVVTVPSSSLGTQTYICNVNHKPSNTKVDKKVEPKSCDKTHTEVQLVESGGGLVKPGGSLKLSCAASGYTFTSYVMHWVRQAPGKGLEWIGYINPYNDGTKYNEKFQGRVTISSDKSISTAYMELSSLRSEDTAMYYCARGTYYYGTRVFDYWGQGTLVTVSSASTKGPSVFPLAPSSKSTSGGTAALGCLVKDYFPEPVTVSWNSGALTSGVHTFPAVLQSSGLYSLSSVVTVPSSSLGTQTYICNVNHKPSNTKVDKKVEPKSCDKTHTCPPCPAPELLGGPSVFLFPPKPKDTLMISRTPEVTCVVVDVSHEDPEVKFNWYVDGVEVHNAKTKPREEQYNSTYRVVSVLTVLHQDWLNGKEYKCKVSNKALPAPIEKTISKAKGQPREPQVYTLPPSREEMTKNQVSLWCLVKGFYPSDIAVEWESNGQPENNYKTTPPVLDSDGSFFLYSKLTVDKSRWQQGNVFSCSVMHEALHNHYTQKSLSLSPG
light: DIVMTQSPATLSLSPGERATLSCRSSKSLQNVNGNTYLYWFQQKPGQSPQLLIYRMSNLNSGVPDRFSGSGSGTEFTLTISSLEPEDFAVYYCMQHLEYPITFGAGTKLEIKRTVAAPSVFIFPPSDEQLKSGTASVVCLLNNFYPREAKVQWKVDNALQSGNSQESVTEQDSKDSTYSLSSTLTLSKADYEKHKVYACEVTHQGLSSPVTKSFNRGEC
chain: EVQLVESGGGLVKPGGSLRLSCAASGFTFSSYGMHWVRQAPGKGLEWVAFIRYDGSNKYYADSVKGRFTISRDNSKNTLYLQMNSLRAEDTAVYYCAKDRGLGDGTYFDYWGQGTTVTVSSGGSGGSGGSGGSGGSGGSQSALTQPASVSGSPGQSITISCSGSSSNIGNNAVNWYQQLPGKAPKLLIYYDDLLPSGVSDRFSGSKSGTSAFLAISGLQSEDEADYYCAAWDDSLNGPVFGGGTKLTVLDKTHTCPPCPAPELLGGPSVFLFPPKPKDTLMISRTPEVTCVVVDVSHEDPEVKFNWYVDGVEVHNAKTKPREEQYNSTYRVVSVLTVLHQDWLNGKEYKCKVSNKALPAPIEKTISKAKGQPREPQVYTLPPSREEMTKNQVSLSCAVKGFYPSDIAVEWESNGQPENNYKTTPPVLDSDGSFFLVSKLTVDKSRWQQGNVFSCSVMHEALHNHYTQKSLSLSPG
notes: CD19, wt Fc, NKG2D(KYK-2.0)

- binding result [1]: binds
B4: 2Fab-1scFv-AFc-4 (bispecific antibody, human IgG1, kappa)
heavy: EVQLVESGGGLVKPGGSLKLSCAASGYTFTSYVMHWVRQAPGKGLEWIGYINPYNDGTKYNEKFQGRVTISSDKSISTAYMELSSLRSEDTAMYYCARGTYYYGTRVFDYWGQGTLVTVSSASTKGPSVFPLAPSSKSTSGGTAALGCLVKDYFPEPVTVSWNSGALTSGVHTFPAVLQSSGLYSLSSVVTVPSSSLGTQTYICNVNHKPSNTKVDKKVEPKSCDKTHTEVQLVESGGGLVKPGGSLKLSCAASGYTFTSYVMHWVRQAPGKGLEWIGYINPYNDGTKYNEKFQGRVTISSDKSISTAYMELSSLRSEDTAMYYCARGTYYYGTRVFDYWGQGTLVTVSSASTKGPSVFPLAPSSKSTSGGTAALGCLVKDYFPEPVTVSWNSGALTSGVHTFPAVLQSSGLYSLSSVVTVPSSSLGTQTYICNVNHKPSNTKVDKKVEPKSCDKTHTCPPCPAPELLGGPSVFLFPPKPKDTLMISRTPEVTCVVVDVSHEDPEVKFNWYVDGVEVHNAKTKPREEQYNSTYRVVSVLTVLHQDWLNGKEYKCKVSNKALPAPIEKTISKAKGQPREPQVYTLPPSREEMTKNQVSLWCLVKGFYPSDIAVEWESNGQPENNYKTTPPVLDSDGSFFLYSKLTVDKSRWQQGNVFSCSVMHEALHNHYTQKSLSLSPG
light: DIVMTQSPATLSLSPGERATLSCRSSKSLQNVNGNTYLYWFQQKPGQSPQLLIYRMSNLNSGVPDRFSGSGSGTEFTLTISSLEPEDFAVYYCMQHLEYPITFGAGTKLEIKRTVAAPSVFIFPPSDEQLKSGTASVVCLLNNFYPREAKVQWKVDNALQSGNSQESVTEQDSKDSTYSLSSTLTLSKADYEKHKVYACEVTHQGLSSPVTKSFNRGEC
chain: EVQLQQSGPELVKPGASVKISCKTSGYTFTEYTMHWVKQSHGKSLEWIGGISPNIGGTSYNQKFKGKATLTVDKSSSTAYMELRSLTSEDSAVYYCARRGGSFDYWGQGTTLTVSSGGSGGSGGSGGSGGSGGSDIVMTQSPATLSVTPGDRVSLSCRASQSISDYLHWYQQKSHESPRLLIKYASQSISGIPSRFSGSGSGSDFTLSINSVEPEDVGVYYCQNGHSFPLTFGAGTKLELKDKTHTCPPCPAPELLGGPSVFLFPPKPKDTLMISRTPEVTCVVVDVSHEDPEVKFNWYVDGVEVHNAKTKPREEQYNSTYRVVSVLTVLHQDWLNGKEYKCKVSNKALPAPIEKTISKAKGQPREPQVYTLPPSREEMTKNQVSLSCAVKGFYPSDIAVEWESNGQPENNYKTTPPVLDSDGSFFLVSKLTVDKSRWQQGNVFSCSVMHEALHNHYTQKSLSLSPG
notes: CD19, wt Fc, NKp46(NKp46-3)

- binding result [1]: binds
B5: 2Fab-1scFv-AFc-2 (bispecific antibody, human IgG1, kappa)
heavy: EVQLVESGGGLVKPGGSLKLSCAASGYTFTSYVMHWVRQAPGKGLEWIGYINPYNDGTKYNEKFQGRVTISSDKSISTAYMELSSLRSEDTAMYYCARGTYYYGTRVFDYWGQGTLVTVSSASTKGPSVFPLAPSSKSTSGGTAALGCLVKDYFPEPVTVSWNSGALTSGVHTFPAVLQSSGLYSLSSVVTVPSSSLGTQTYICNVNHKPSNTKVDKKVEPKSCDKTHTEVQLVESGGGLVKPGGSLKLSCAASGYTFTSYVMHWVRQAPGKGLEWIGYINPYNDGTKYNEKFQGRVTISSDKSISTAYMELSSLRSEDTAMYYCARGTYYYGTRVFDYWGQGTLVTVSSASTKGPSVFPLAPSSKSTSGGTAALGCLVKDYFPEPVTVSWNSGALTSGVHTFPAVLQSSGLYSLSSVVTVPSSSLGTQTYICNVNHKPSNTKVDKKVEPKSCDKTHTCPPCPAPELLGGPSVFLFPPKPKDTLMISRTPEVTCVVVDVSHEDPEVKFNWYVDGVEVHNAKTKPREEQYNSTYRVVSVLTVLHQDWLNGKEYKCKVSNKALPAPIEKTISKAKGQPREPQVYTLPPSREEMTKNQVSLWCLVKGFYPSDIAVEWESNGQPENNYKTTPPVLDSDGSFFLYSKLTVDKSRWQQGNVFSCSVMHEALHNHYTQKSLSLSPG
light: DIVMTQSPATLSLSPGERATLSCRSSKSLQNVNGNTYLYWFQQKPGQSPQLLIYRMSNLNSGVPDRFSGSGSGTEFTLTISSLEPEDFAVYYCMQHLEYPITFGAGTKLEIKRTVAAPSVFIFPPSDEQLKSGTASVVCLLNNFYPREAKVQWKVDNALQSGNSQESVTEQDSKDSTYSLSSTLTLSKADYEKHKVYACEVTHQGLSSPVTKSFNRGEC
chain: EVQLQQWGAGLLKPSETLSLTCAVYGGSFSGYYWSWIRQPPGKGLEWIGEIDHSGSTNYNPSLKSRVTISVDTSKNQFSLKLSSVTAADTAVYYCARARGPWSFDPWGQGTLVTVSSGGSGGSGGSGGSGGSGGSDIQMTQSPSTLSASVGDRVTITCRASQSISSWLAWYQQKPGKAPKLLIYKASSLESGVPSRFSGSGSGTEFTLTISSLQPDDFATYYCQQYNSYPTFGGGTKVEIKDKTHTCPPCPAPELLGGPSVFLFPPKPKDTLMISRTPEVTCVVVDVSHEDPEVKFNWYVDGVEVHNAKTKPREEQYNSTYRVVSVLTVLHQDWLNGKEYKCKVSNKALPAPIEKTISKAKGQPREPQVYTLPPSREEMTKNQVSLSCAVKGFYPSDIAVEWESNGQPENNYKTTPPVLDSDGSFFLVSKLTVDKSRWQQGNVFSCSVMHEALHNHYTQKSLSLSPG
notes: CD19, wt Fc, NKG2D(ADI-27743)
